According to US20200397913A1, “AXL-SPECIFIC ANTIBODY-DRUG CONJUGATES FOR CANCER TREATMENT” (GENMAB A/S, priority 2015, published 2020):
Residue numbers refer to the chain shown, from its start. Numbers in names are those of the source. Marks after values point to notes of the source that are not given here.

B1: IgG1-AXL-726-M101L: point mutant of IgG1-AXL-726, VH SEQ ID NO:32, VL SEQ ID NO:33 (antibody, V domains shown)
VH: QVQLQQWGAGLLKPSETLSLTCAIDGGSFSGYYWSWIRQPPGKGLEWIGEISHSGRTNYNPSLKSRVTISIDTSKNQFSLKLSSVAAADTAVYYCARFITLIRGAIITHFDYWGQGALVTVSS
VL: DIQMTQSPSSLSASVGDRVTITCRASQGISSWLAWYQQKPEKAPKSLIYAASSLQSGVPSRFSGSGSGTDFTLTISSLQPEDFATYYCQQYHSYPYTFGQGTKLEIK
modifications: homo sapiens
B2: IgG1-AXL-148: human IgG1,κ anti-AXL antibody, VH SEQ ID NO:5, VL SEQ ID NO:6; Ig2 domain binding (antibody, V domains shown)
VH: EVQLLESGGGLVQPGGSLRLSCAASGFTFSSYAMTWVRQAPGKGLEWVSAISISGGSTFYADSVKGRFTISRDNSKNTLYLQMNSLRAEDTAVYYCRGYSGYVYDAFDFWGQGTMVTVSS
VL: B1 VL with S31N, H92N, Y96L, Q100G, L104V
modifications: homo sapiens

Tests used:
[1] = system: CV1664 tumors; assay: Cervical cancer PDX model CV1664; format: in vivo, BALB/c nude mice
Description: Inoculation of tumor fragments into BALB/c nude mice and randomization was performed as described in Example 21.

[2] = system: ES0195 tumors; assay: Esophageal cancer PDX model ES0195; format: in vivo, BALB/c nude mice; settings: 20 mg/kg i.p. at day 0, 7 and 14
Description: Tumor fragments from donor mice bearing patient-derived esophageal xenografts (ES0195) were used for inoculation into BALB/c nude mice. Each mouse was inoculated subcutaneously at the right flank with one tumor fragment (2-3 mm in diameter) and tumors were allowed to grow until the tumor volume was about 150 mm^3. […] The antibodies and ADCs were dosed intravenously (i.v.) at 4 mg/kg at day of randomization (day 0) and day 7. Paclitaxel was dosed intra-peritoneally (i.p.) at 20 mg/kg at day 0, 7, and 14. Tumor volumes (mm^3) were monitored twice weekly and were calculated from caliper (PLEXX) measurements as: 0.52×(length)×(width)^2.

[3] = system: A431 cells; assay: Antibody-dependent cell-mediated cytotoxicity (51Cr release); format: cell-based, human; settings: concentrations up to 10 μg/mL
Description: The ability of anti-AXL antibodies to induce ADCC of A431 epidermoid carcinoma cells was determined as explained below. As effector cells, peripheral blood mononuclear cells from healthy volunteers (UMC Utrecht, The Netherlands) were used.
A431 cells were collected (5×10^6 cells) in culture medium (RPMI 1640 culture medium supplemented with 10% fetal calf serum (FSC)), to which 100 μCi ^51Cr (Chromium-51; Amersham Biosciences Europe GmbH, Roosendaal, The Netherlands) had been added, and the mixture was incubated in a 37° C. water bath for 1 hour (hr) while shaking. After washing of the cells (twice in PBS, 1200 rpm, 5 min), the cells were resuspended in RPMI1640/10% FSC and counted by trypan blue exclusion. Cells were diluted to a density of 1×10^5 cells/mL.
Peripheral blood mononuclear cells (healthy volunteers, UMC Utrecht, Utrecht, The Netherlands) were isolated from 45 mL of freshly drawn heparin blood by Ficoll (Bio Whittaker; lymphocyte separation medium, cat 17-829E) according to the manufacturer's instructions. After resuspension of cells in RPMI1640/10% FSC, cells were counted by trypan blue exclusion and diluted to a density of 1×10^7 cells/mL.
50 μl of ^51Cr-labeled targets cells were pipetted into 96-well plates, and 50 μl of antibody were added, diluted in RPMI1640/10% FSC (3-fold dilutions at final concentrations range 0.01-10 μg/mL). Cells were incubated (room temperature (RT), 15 min), and 50 μl effector cells were added, resulting in an effector to target ratio of 100:1 (for determination of maximal lysis, 100 μl 5% Triton-X100 was added instead of effector cells; for determination of spontaneous lysis, 50 μL target cells and 100 μL RPMI1640/10% FSC were used). Cells were incubated overnight at 37° C. and 5% CO2. After spinning down cells (1200 rpm, 10 min), 70 μL of supernatant was harvested into micronic tubes, and counted in a gamma counter. The percentage specific lysis was calculated as follows:
% specific lysis=(cpm sample−cpm target cells only)/(cpm maximal lysis−cpm target cells only),
wherein cpm is counts per minute.

[4] = system: SKMEL147 tumors; assay: SKMEL147 melanoma xenograft model; format: in vivo, NMRI nude mice; settings: 4 mg/kg i.v. on day 12 and day 19 after tumor cell injection
[5] = system: MDA-MB-231 and Calu-1 cells; assay: Internalization of cell surface bound HuMab-AXL by flow cytometry; format: cell-based, human; settings: 1 hour 4° C, then overnight 37° C versus 4° C
Description: Internalization of cell surface bound HuMab-AXL antibodies to MDA-MB-231 and Calu-1 cells (human lung carcinoma cell line; ATCC, catalognumber HTB-54) was evaluated by flow cytometry. 50,000 cells were seeded in 96-well tissue culture plates and allowed to attach for 6 hrs at 37° C. Plates were incubated at 4° C. for 30 minutes before incubation with serial dilutions of AXL-antibodies (final concentration range 0.0032-10 μg/mL) at 4° C. for 1 hour. Subsequently, the medium was replaced by tissue culture medium without antibody and cells were incubated overnight (16-18 hours) at 37° C. or 4° C. […] Finally, cells were washed twice in PBS/0.1% BSA/0.02% azide, resuspended in 120 μL PBS/0.1% BSA/0.02% azide and analyzed on a FACS Cantoll (BD Biosciences).
(§1) Binding curves were analyzed using non-linear regression (sigmoidal dose-response with variable slope) using GraphPad Prism V5.04 software (GraphPad Software, San Diego, Calif., USA).

[6] = target: T1, human AXL (Homo sapiens, UniProt P30530); assay: Flow cytometry binding to HEK293T cells transfected with full length human AXL; settings: at least 3 experiments
T1 construct: expression constructs for full length human AXL; expressed in transfected cells; host or cells: HEK293T

[7] = target: T2, human AXL with a cynomolgus monkey extracellular domain (ECD) (Homo sapiens, UniProt P30530, P441T/S191N/S285L/T105A/T112A/T125N/T443A); assay: Flow cytometry binding to HEK293T cells transfected with human AXL with cynomolgus ECD; settings: at least 3 experiments
T2 construct: aa 1-447); expressed in transfected cells; host or cells: HEK293T

[8] = target: T3, AXLECDHis (extracellular domain of human AXL) (Homo sapiens, UniProt P30530); assay: Binding affinity by Bio-Layer Interferometry (Octet); settings: soluble AXLECDHis, 30° C, 1:1 model
T3 construct: the extracellular domain (ECD) of human AXL (aa 1-447) with a C-terminal His tag (AXLECDHis); His tag (C); made in house; host or cells: HEK-293F

[9] = target: T4, human AXL with a mouse ECD (Mus musculus, UniProt Q00993, A791T/A867T/C878S/D603E/D853E/E609A/F637Y/G606S/G869S/H824Y/L452V/L825P/L872Q/P881A/R785Q/R828P/S823G/S856P/S873P/T871A/V766A); assay: Flow cytometry binding to HEK293T cells transfected with human AXL with mouse ECD; settings: 0.0024-10 μg/mL
T4 construct: aa 1-441); expressed in transfected cells; host or cells: HEK293T
T4 sequence (Q00993 19-888 with the stated changes): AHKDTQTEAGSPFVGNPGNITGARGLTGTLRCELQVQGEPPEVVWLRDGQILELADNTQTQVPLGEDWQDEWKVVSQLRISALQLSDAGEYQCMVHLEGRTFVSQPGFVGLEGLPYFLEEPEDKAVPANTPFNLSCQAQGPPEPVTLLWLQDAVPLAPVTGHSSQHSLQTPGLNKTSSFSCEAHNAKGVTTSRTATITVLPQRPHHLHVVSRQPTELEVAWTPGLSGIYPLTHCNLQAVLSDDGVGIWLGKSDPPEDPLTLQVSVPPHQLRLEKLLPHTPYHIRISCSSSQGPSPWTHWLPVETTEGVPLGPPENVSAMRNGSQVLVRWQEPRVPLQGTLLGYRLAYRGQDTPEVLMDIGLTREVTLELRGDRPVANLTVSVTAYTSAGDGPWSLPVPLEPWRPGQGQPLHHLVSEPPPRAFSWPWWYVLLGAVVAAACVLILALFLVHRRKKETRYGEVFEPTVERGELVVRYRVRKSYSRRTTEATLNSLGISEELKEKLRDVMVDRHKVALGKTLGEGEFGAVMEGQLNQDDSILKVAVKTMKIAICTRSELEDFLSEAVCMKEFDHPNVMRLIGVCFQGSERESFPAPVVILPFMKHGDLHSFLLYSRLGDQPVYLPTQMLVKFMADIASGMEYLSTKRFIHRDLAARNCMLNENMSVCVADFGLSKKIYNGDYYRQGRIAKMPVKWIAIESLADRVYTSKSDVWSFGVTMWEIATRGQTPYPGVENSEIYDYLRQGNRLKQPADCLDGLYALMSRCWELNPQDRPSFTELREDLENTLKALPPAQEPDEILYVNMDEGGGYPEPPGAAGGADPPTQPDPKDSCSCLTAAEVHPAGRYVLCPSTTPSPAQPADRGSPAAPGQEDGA

[10] = target: Gas6 binding to AXL on A431 cells (Homo sapiens, UniProt P30530); assay: Gas6 binding to A431 cells pre-incubated with AXL antibodies; parameters: endogenous in cells; host or cells: A431; settings: pre-incubation with 10 μg/mL antibody; control antibody b12
Description: Alternatively, A431 cells were pre-incubated with 10 μg/mL AXL antibodies (15 minutes, 4° C.) to assess if the AXL ligand Gas6 could still bind in presence of AXL antibodies. […] After washing three times in PBS/0.1% BSA/0.02% azide, cells were incubated with mouse anti-Gas6 IgG2a (R&D Systems; cat no. MAB885) at 4° C. for 30 min. After washing three times in PBS/0.1% BSA/0.02% azide, cells were incubated with FITC-labelled goat anti-mouse IgG (Dako, Heverlee, Belgium; cat no. F049702) at 4° C. for 30 min in the dark. Next, cells were washed twice in PBS/0.1% BSA/0.02% azide, resuspended in 120 μL PBS/0.1% BSA/0.02% azide and analyzed on a FACS Cantoll (BD Biosciences).
as §1
Therefore, binding of Gas6 to A431 cells that had been pre-incubated with 10 μg/mL AXL antibodies was tested as described in Example 2.

[11] = target: T5, AXL on A431 cells (Homo sapiens, UniProt P30530); assay: Antibody binding to A431 cells with or without Gas6 pre-incubation
T5 construct: AXL-positive A431 cells were incubated; endogenous in cells; host or cells: A431

[12] = system: PAXF1657 tumors; assay: PAXF1657 pancreas cancer PDX model; format: in vivo, NMRI nu/nu mice; settings: dose not stated in the sentence (FIG. 10B, 10C)
Description: Human pancreas tumor tissue was subcutaneously implanted in the left flank of 5-7 weeks old female NMRI nu/nu mice. […] At day of randomization (day 0), the 3 ADCs were dosed intravenously (i.v.) at either 4 mg/kg or 2 mg/kg, and the control group received a single dose of IgG1-b12 (4 mg/kg). Tumor volumes (mm^3) were monitored twice weekly and were calculated from caliper (PLEXX) measurements as: 0.52×(length)×(width)^2.

[13] = target: T6, human AXL transiently expressed by HEK-293F cells (Homo sapiens, UniProt P30530); assay: Homogeneous antigen specific screening assay (FMAT); settings: binding to human AXL on HEK-293F cells
T6 construct: HEK-293F cells transiently expressing full length human AXL; expressed in transfected cells; host or cells: HEK-293F

Molecule	anti-tumor activity ([1]; 20 mg/kg intraperitoneally at day 0 and 7)	anti-tumor activity [2]	induction of ADCC [3]	anti-tumor activity ([1]; 4 mg/kg at day 0 and 7)	anti-tumor activity [4]	internalization of membrane-bound antibody [5]	Binding EC50 human AXL Average (s.d.) [6]	Binding EC50 cynomolgus AXL Average (s.d.) [7]	Kdis [8] [s⁻¹]	Kon [8] [M⁻¹ s⁻¹]	binding to AXL with a mouse ECD [9]	Gas6 binding: Maximal binding in presence of AXL antibodies (% of binding in presence of control antibody) [10] [%]	Antibody binding to A431 cells: EC50 w/o Gas6 mean (s.d.) ([11]; no Gas6 pre-incubation)	Antibody binding to A431 cells: EC50 in presence of Gas6 mean (s.d.) ([11]; pre-incubation with 10 μg/mL Gas6)	anti-tumor activity [12]	Maximal binding [13] [Arbitrary units]
CC(=O)O[C@H]1C(=O)[C@@]2(C)[C@H]([C@H](OC(=O)c3ccccc3)[C@]3(O)C[C@H](OC(=O)[C@H](O)[C@@H](NC(=O)c4ccccc4)c4ccccc4)C(C)=C1C3(C)C)[C@]1(OC(C)=O)CO[C@@H]1C[C@@H]2O [paclitaxel, reference compound]	induced partial tumor regression	tumor growth inhibition														
IgG1-AXL-107: human IgG1,κ anti-AXL antibody, VH SEQ ID NO:1, VL SEQ ID NO:2; Ig1 domain binding			did not induce significant ADCC	only induced minor inhibition of tumor growth	did not show tumor growth inhibition	internalize										
B1			did not induce significant ADCC			internalize	0.184 (0.117) μg/mL	0.250 (0.066) μg/mL	6.9e-05	210000	not detectable					
B2			did not induce significant ADCC			internalize	0.094 (0.059) μg/mL	0.152 (0.080) μg/mL	0.0044	230000	not detectable	106	0.11 (0.13) μg/mL	0.20 (0.30) μg/mL	did not result in anti-tumor activity	3499
